Experimental data reported in paper PMC10466327.

Molecular target: glutathione S-transferase (GST)
Assay: cross-linking; GST crosslinked in a crosslinker titration with UCCL or DSSO, two molar ratios of each reagent; crosslinked dimer seen (Figure 2c)

glutathione S-transferase (GST) (enzyme)
stoichiometry N: 2
